According to paper PMC3756526 (2013):
Each block holds one molecule with its values, some of them ahead of it.

Columns and labels:
[1] = target: ASB9–EloBC ternary complex (ankyrin-repeat and SOCS-box protein 9, Elongin B, Elongin C) (human) (UniProt Q96DX5); assay: native MS; nanoESI–MS of the reconstituted ASB9–EloBC–Cul5NTD sample at three concentrations; 500 mM ammonium acetate, pH 7.0
[2] = target: ASB9–EloBC ternary complex (ankyrin-repeat and SOCS-box protein 9, Elongin B, Elongin C) (human) (UniProt Q96DX5); assay: ITC; 288 K; Cul5NTD (450 μM) titrated into ASB9–EloBC (60 μM) in the cell; 50 mM HEPES, 100 mM NaCl, pH 7.5, 1 mM TCEP; one-set-of-sites model
[3] = target: ASB9–EloBC ternary complex (ankyrin-repeat and SOCS-box protein 9, Elongin B, Elongin C) (human) (UniProt Q96DX5); assay: ITC; 303 K; Cul5NTD (450 μM) titrated into ASB9–EloBC (60 μM) in the cell; 50 mM HEPES, 100 mM NaCl, pH 7.5, 1 mM TCEP; one-set-of-sites model
[4] = target: ASB9–EloBC ternary complex (ankyrin-repeat and SOCS-box protein 9, Elongin B, Elongin C) (human) (UniProt Q96DX5); assay: differential scanning fluorimetry; 2 μM ASB9–EloBC with Cul5NTD at 8, 4, 2, 1, 0.5 and 0.25 μM; Sypro Orange; 50 mM HEPES, 100 mM NaCl, pH 7.5, 1 mM TCEP; 37 to 95 °C at 1 °C/min
[5] = target: ASB9–EloBC ternary complex (ankyrin-repeat and SOCS-box protein 9, Elongin B, Elongin C) (human) (UniProt Q96DX5); assay: ITC; 298 K; Cullin NTD (450 μM) titrated into ASB9–EloBC (60 μM) in the cell; 50 mM HEPES, 100 mM NaCl, pH 7.5, 1 mM TCEP; one-set-of-sites model
[6] = target: T1, Cullin 5 N-terminal domain (residues 1–386, V341R, L345D) (human, UniProt Q93034 1-386, V341R | L345D); assay: ITC; 303 K
[7] = target: T1, Cullin 5 N-terminal domain (residues …); assay: ITC; 293 K
[8] = target: T1, Cullin 5 N-terminal domain (residues …); assay: ITC; 288 K

stoichiometry N [1]: 1 | dH [2]: -3 kcal/mol | dH [3]: -8.3 kcal/mol | ΔTm [4]: 4.6 °C | Kd [5]: 220 nM | dH [5]: -6 kcal/mol | stoichiometry N [5]: 1
Molecule: Cullin 5 N-terminal domain (residues 1–386, V341R, L345D) (from UniProt Q93034 1-386) (domain or fragment)

Kd [6]: 61 nM | Kd [7]: 119 nM | Kd [8]: 282 nM
B1: ASB9–EloBC ternary complex (ankyrin-repeat and SOCS-box protein 9, Elongin B, Elongin C) (complex)
chain 1: SDWSPMHEAAIHGHQLSLRNLISQGWAVNIITADHVSPLHEACLGGHLSCVKILLKHGAQVNGVTADWHTPLFNACVSGSWDCVNLLLQHGASVQPESDLASPIHEAARRGHVECVNSLIAYGGNIDHKISHLGTPLYLACENQQRACVKKLLESGADVNQGKGQDSPLHAVARTASEELACLLMDFGADTQAKNAEGKRPVELVPPESPLAQLFLEREGPPSLMQLCRLRIRKCFGIQQHHKITKLVLPEDLKQFLLHL
chain 2: MDVFLMIRRHKTTIFTDAKESSTVFELKRIVEGILKRPPDEQRLYKDDQLLDDGKTLGECGFTSQTARPQAPATVGLAFRADDTFEALCIEPFSSPPELPDVMKPQDSGSSANEQAVQ
chain 3: MYVKLISSDGHEFIVKREHALTSGTIKAMLSGPGQFAENETNEVNFREIPSHVLSKVCMYFTYKVRYTNSSTEIPEFPIAPEIALELLMAANFLDC
